Laboratory results reported in PMC9582512 (2022).

Tests used:
[1] = target: IgG4 F127 pre-complexed with dimeric Fel d 1 (human | cat, UniProt P30438 23-92; P30440 18-109); test: BLI; pre-complexed with Fel d 1
[2] = target: IgG1 F127 pre-complexed with dimeric Fel d 1 (human | cat, UniProt P30438 23-92; P30440 18-109); test: BLI; pre-complexed with Fel d 1

- koff [1]: 0.000126 s⁻¹
- koff [2]: 0.000279 s⁻¹
B1: human recombinant biotinylated FcγRIIb (CD32b) (receptor)
chain: TPAAPPKAVLKLEPQWINVLQEDSVTLTCRGTHSPESDSIQWFHNGNLIPTHTQPSYRFKANNNDSGEYTCQTGQTSLSDPVHLTVLSEWLVLQTPHLEFQEGETIVLRCHSWKDKPLVKVTFFQNGKSKKFSRSDPNFSIPQANHSHSGDYHCTGNIGYTLYSSKPVTITVQAP
modifications: biotin (biotinylated; site not stated)
